In patent publication US20240277770A1 (Genentech, published 2024):

target: T1, HLA-A*01:01 (human); experiment: HLA-I IP (W6/32) and targeted MS of monoallelic HMy2.C1R cells expressing the polyantigen cassette
T1 construct: whole, on cells; MHC class I on a monoallelic cell line

Binder | binding result
LDTAGKEEY | binds
DTAGREEY | binds
YTDVSNMSHLA | binds
ILDTAGKEEY | binds
ILDTAGREEY | binds
YTDVSNMSH | binds

target: T2, HLA-B*35:01 (human); experiment: as above
T2 construct: whole, on cells; MHC class I on a monoallelic cell line

Binder | binding result
PIIIGHHAY | binds
IIIGGHAY | binds
IIIGHHAY | binds
MPFGSLLDY | binds
VKPIIIGHHAY | binds

target: T3, HLA-C*05:01 (human); experiment: as above
T3 construct: whole, on cells; MHC class I on a monoallelic cell line

Binder | binding result
STDVGFCTL | binds
GRNSFEVCV | binds
GADGVGKSAL | binds
IGDFGLATM | binds
CNTTARAFAVV | binds

target: T4, HLA-C*07:02 (human); experiment: as above
T4 construct: whole, on cells; MHC class I on a monoallelic cell line

Binder | binding result
KRNSLALSL | binds

target: T5, HLA-C*07:01 (human); experiment: as above
T5 construct: whole, on cells; MHC class I on a monoallelic cell line

Binder | binding result
KRNSLALSL | binds
EKSRWSGSHQF | binds

target: T6, HLA-C*06:02 (human); experiment: as above
T6 construct: whole, on cells; MHC class I on a monoallelic cell line

Binder | binding result
GRNSFEVHV | binds
KRNSLALSL | binds

target: T7, HLA-A*03:01 (human); experiment: as above
T7 construct: whole, on cells; MHC class I on a monoallelic cell line

Binder | binding result
VVGASGVGK | binds
VVGAGDVGK | binds
ASGAFGTVYK | binds
KITDFGRAK | binds
VVVGAVGVGK | binds
VVVGASGVGK | binds
VVVGARGVGK | binds
VVVGAAGVGK | binds
VVVGADGVGK | binds

target: T8, HLA-B*08:01 (human); experiment: as above
T8 construct: whole, on cells; MHC class I on a monoallelic cell line

Binder | binding result
FGRAKLLGA | binds
FMKQMNDAL | binds
SKRNSLAL | binds
AGREEYSAM | binds
FGLARYIM | binds
ERCPHRPIL | binds
WVKPIIIGC | binds
DGVGKSAL | binds
KMRRKMSP | binds
FKKIKVLAS | binds
MIKRSKRNSL | binds

target: T9, HLA-B*07:02 (human); experiment: as above
T9 construct: whole, on cells; MHC class I on a monoallelic cell line

Binder | binding result
KPIIIGCH | binds
RPIPIKYKAM | binds
GARGVGKSAL | binds
CPHRPILQA | binds
SPNGTIQNIL | binds
MPFGSLLDY | binds
GARGVGKSA | binds
RSKRNSLAL | binds

target: T10, HLA-A*11:01 (human); experiment: as above
T10 construct: whole, on cells; MHC class I on a monoallelic cell line

Binder | binding result
VVGAAGVGK | binds
VVGAGCVGK | binds
VVGASGVGK | binds
VVGACGVGK | binds
VVGADGVGK | binds
VVGAGDVGK | binds
STRDPLSEITK | binds
ASGAFGTVYK | binds
SCMGGMNQR | binds
VVVGAVGVGK | binds
VVVGASGVGK | binds
VVVGARGVGK | binds
VVVGAGCVGK | binds
VVVGAAGVGK | binds
VVVGADGVGK | binds
LASGAFGTVYK | binds
ASGAFGTVY | binds

target: T11, HLA-A*02:01 (human); experiment: HLA-I IP and untargeted MS of monoallelic cells
T11 construct: whole, on cells; MHC class I on a monoallelic cell line (HMy2.C1R)

Binder | binding result
IMSDSNYVV | binds

target: T10, HLA-A*11:01; experiment: HLA-I IP and targeted MS with hipMHC standards, A*11:01 monoallelic C1R cells (FIG. 12B)

Binder | binding result
VVGAGGVGK (also called KRAS G12 wild type 9-mer) | binds
VVVGAGGVGK (also called KRAS G12 wild type 10-mer) | binds
